According to publication PMC2583301 (The Journal of Biological Chemistry, 2008):
Residue numbers refer to the chain shown, from its start. Names and notes keep the numbering of the source. Read-outs that look alike come from different tables or passages of the source. Blank lines part the entries; values can stand above or below the binder they belong to.

Key:
[1] = biological target: T1, H2A/H2B dimer (major type, wild type) (Xenopus laevis, UniProt P06897;P02281); assay: other fluorescence titration
[2] = biological target: T1, H2A/H2B dimer (major type, wild type); assay: other fluorescence titration; remark: listed apart in the source
[3] = biological target: H2A refolded in the absence of H2B (Xenopus laevis, UniProt P06897 1-130); assay: other fluorescence titration
[4] = biological target: H2A.Z/H2B dimer ( | Xenopus laevis, UniProt P0C0S5;P02281); assay: other fluorescence titration
[5] = biological target: H3 alone (Xenopus laevis, UniProt P84233 1-136); assay: other fluorescence titration
[6] = biological target: T1, H2A/H2B dimer (major type, wild type); assay: other fluorescence titration; remark: listed apart in the source
[7] = biological target: T1, H2A/H2B dimer (major type, wild type); assay: other fluorescence titration; remark: listed apart in the source
[8] = biological target: T1, H2A/H2B dimer (major type, wild type); assay: native gel or EMSA

- Kd [1]: 7.8 nM
- Kd [2]: 21.6 nM
- Kd [3]: 3.5 nM
- Kd [4]: 7.4 nM
- Kd [5]: > 10000 nM
- Kd [6]: 7.8 nM
- Kd [7]: 1.2 nM
B1: yNap1 C200A/C249A/C272A labelled with Alexa dye at Cys-414 (yNap1m*) (natural protein)
chain: MSDPIRTKPKSSMQIDNAPTPHNTPASVLNPSYLKNGNPVRAQAQEQDDKIGTINEEDILANQPLLLQSIQDRLGSLVGQDSGYVGGLPKNVKEKLLSLKTLQSELFEVEKEFQVEMFELENKFLQKYKPIWEQRSRIISGQEQPKPEQIAKGQEIVESLNETELLVDEEEKAQNDSEEEQVKGIPSFWLTALENLPIVADTITDRDAEVLEYLQDIGLEYLTDGRPGFKLLFRFDSSANPFFTNDILAKTYFYQKELGYSGDFIYDHAEGAEISWKDNAHNVTVDLEMRKQRNKTTKQVRTIEKITPIESFFNFFDPPKIQNEDQDEELEEDLEERLALDYSIGEQLKDKLIPRAVDWFTGAALEFEFEEDEEEADEDEDEEEDDDHGLEDDDGESAEEQDDFAGRPEQAPECKQS
modifications: Alexa-546 or Alexa-488 on Cys-414

- binding result [8]: binds
B2: yeast nucleosome assembly protein 1 (yNap1), wild type (natural protein)
chain: B1 chain with A200C, A249C, A272C
